Experimental data from paper PMC5847621 (Nature Communications, 2018).

T1: VSV Gth, soluble form of the ectodomain of VSV glycoprotein G (residues 1-422) (Vesicular stomatitis virus (Mudd-Summer …, UniProt P0C2X0 17-438))
T1 sequence: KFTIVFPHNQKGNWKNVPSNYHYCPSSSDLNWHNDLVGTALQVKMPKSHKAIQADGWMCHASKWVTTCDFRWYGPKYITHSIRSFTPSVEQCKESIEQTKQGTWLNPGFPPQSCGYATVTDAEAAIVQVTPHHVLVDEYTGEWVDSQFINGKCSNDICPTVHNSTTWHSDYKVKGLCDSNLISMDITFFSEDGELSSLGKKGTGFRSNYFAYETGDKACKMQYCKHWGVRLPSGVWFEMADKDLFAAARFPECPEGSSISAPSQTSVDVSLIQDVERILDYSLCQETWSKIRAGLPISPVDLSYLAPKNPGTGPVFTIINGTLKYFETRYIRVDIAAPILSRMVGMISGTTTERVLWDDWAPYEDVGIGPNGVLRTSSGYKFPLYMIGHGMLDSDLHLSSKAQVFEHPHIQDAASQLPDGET


Target: T1, VSV Gth, soluble form of the ectodomain …
Test: ITC
Conditions: both partners purified

Row | Binder | Kd | stoichiometry N
1 | LDL-R CR2 domain, isolated (GST cleaved off) (domain or fragment, also called CR2 monovalent domain; not shown: GST, N-terminal, cleaved) not shown | 7.3 µM | 1
2 | LDL-R CR3 domain, isolated (GST cleaved off) (domain or fragment, also called CR3 monovalent domain; not shown: GST, N-terminal, cleaved) not shown | 4.3 µM | 1
